From paper PMC5382271, “The conserved protein Seb1 drives transcription termination by binding RNA polymerase II and nascent RNA” (Nature Communications, 2017) come the findings set out here.

Residue numbers refer to the chain shown, from its start. Names and notes keep the numbering of the source. Where no end group is shown, it is not given here. FAM = 5'-fluorescein amidite

Series [1] concerns the target T1, SUMO-RRM WT (Schizosaccharomyces pombe, UniProt Q9UTE3 388-540).
T1 sequence: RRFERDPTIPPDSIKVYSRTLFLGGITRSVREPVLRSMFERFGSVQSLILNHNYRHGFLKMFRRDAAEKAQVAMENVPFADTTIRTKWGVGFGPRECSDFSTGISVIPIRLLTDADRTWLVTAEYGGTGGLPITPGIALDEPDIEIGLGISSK
Nature of the series: fluorescence anisotropy; 25 mM Tris-HCl pH 8.0, 100 mM NaCl, 2 mM MgCl2, 1 mM DTT, 16.7% glycerol, 0.1% IGEPAL, 0.1 mg/ml tRNA, 2.5% RNasin, 25 C, 40 nM FAM-RNA. The note with it: protein: recombinant; tags: N-terminal His6-SUMO; single strand. For orientation: Polarisation of emitted light reports the rotation of a fluorescent probe.

For series [2], the target named is T2, SUMO-RRM F487A (Schizosaccharomyces pombe, UniProt Q9UTE3 388-540, F487A).
T2 sequence: T1 sequence with F100A
Described as above. The conditions noted are these: protein: recombinant; tags: N-terminal His6-SUMO; single strand.

Series [3] deals with T3, SUMO-RRM R504E (Schizosaccharomyces pombe, UniProt Q9UTE3 388-540, R504E).
T3 sequence: T1 sequence with R117E
The description is as above. The note with it: protein: recombinant; tags: N-terminal His6-SUMO; single strand.

Series [4] concerns the target T4, SUMO-RRM R392E (Schizosaccharomyces pombe, UniProt Q9UTE3 388-540, R392E).
T4 sequence: T1 sequence with R5E
The description is as above. The note with it: protein: recombinant; tags: N-terminal His6-SUMO; single strand.

Series [5] concerns the target T5, SUMO-RRM F449A (Schizosaccharomyces pombe, UniProt Q9UTE3 388-540, F449A).
T5 sequence: T1 sequence with F62A
The series is described as above. The note with it: protein: recombinant; tags: N-terminal His6-SUMO; single strand.

For series [6], the target named is T6, SUMO-RRM R428E (Schizosaccharomyces pombe, UniProt Q9UTE3 388-540, R428E).
T6 sequence: T1 sequence with R41E
The description is as above. The note with it: protein: recombinant; tags: N-terminal His6-SUMO; single strand.

In series [7] the target is T7, SUMO-RRM K402A (Schizosaccharomyces pombe, UniProt Q9UTE3 388-540, K402A).
T7 sequence: T1 sequence with K15A
Described as above. The conditions noted are these: protein: recombinant; tags: N-terminal His6-SUMO; single strand.

In series [8] the target is T8, Seb1-RRM388-540 (tag cleaved) (Schizosaccharomyces pombe, UniProt Q9UTE3 388-540).
T8 sequence: T1 sequence
The description is as above. The note with it: protein: recombinant; tags: His6-SUMO removed with 3C protease; single strand.

Series [9] has as its target T9, SUMO-RRM R450A (Schizosaccharomyces pombe, UniProt Q9UTE3 388-540, R450A).
T9 sequence: T1 sequence with R63A
The series is described as above. The conditions noted are these: protein: recombinant; tags: N-terminal His6-SUMO; single strand.

Series [10] addresses T10, SUMO-RRM S492A (Schizosaccharomyces pombe, UniProt Q9UTE3 388-540, S492A).
T10 sequence: T1 sequence with S105A
Nature of the series: fluorescence anisotropy; text: mild effect on binding; 25 mM Tris-HCl pH 8.0, 100 mM NaCl, 2 mM MgCl2, 1 mM DTT, 16.7% glycerol, 0.1% IGEPAL, 0.1 mg/ml tRNA, 2.5% RNasin, 25 C, 40 nM FAM-RNA. The conditions noted are these: protein: recombinant; tags: N-terminal His6-SUMO; single strand.

In series [11] the target is T11, SUMO-RRM R472E (Schizosaccharomyces pombe, UniProt Q9UTE3 388-540, R472E).
T11 sequence: T1 sequence with R85E
Nature of the series: fluorescence anisotropy; text: completely abolishes RNA binding; fitted Kd error exceeds value; 25 mM Tris-HCl pH 8.0, 100 mM NaCl, 2 mM MgCl2, 1 mM DTT, 16.7% glycerol, 0.1% IGEPAL, 0.1 mg/ml tRNA, 2.5% RNasin, 25 C, 40 nM FAM-RNA. The conditions noted are these: protein: recombinant; tags: N-terminal His6-SUMO; single strand.

Series [12] has as its target T12, Seb1-CID(1-152) (S. pombe, UniProt Q9UTE3 1-152).
T12 construct: The full-length parent construct in pET41a(+) has a C-terminal His8 tag; also called CID WT; source: E. coli Rosetta, purified (Ni-NTA, size-exclusion chromatography)
T12 sequence (looked up): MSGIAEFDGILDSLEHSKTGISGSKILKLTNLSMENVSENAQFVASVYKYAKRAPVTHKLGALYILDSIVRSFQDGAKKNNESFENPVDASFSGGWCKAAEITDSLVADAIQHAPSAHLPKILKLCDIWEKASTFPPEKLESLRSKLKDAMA
Nature of the series: fluorescence polarisation; fluorescence anisotropy; Seb1-CID(1-152) titrated against 75 nM N-terminally FAM-tagged two-repeat CTD peptide; 25 mM HEPES pH 7.3, 200 mM NaCl, 1 mM EDTA; 25 °C. The conditions noted are these: both partners purified.

Series [13] has as its target T13, FAM-tagged two-repeat S2-phosphorylated CTD peptide.
T13 chain: YSPTSPSYSPTSPS
As to the kind of experiment: fluorescence anisotropy (FA). The conditions noted are these: chain shown with the change; read at the highest titration point, Seb1-CID 500 µM; parent: est. 110; read off a plot.

Series [14] addresses T14, FAM-tagged two-repeat S5-phosphorylated CTD peptide.
T14 chain: YSPTSPSYSPTSPS
As to the kind of experiment: fluorescence anisotropy (FA). The note with it: chain shown with the change; read at the highest titration point, Seb1-CID 500 µM; parent: est. 77; read off a plot.

Series [15] deals with T15, FAM-tagged two-repeat non-phosphorylated CTD peptide.
T15 chain: YSPTSPSYSPTSPS
As to the kind of experiment: fluorescence anisotropy (FA). The conditions noted are these: chain shown with the change; read at the highest titration point, Seb1-CID 500 µM; parent: est. 44; read off a plot.

The target of series [16] is FAM-tagged two-repeat S2-phosphorylated CTD peptide. As to the kind of experiment: fluorescence polarisation; fluorescence anisotropy; Seb1-CID(1-152) titrated against 75 nM N-terminally FAM-tagged two-repeat CTD peptide; 25 mM HEPES pH 7.3, 200 mM NaCl, 1 mM EDTA; 25 °C.
The target of series [17] is FAM-tagged two-repeat S5-phosphorylated CTD peptide. The series is described as above.
Series [18] has as its target FAM-tagged two-repeat S7-phosphorylated CTD peptide. The description is as above.

Broadly, the Kd is the constant that tells how readily two partners part at equilibrium. AUUAGUAAAA (ssRNA) [FAM-AUUAGUAAAA RNA]: the Kd in [1] worked out at 1.72 ± 0.06 µM; in series [2] it was 25.6 ± 15.7 µM; in series [3] it was 2.37 ± 0.17 µM; in series [4] it was 3.33 ± 0.53 µM; in [5], 1.99 ± 0.19 µM; in series [6], 2.87 ± 0.85 µM. Moreover, the Kd in series [7] was 2.49 ± 0.33 µM; in series [8], 1.84 ± 0.63 µM; in series [9] it was 1.91 ± 0.71 µM; in series [10], 4.2 ± 0.56 µM; in [11], 17.8 ± 27.5 µM.
For {FAM}-YSPTSPSYSPTSPS [FAM-tagged two-repeat non-phosphorylated CTD peptide], the Kd in series [12] is > 1000 µM.

B1: Seb1-CID(1-152), Q9UTE3 K121E (protein)
chain: T12 sequence (looked up) with K121E
For B1, the figures for the response in series [13], in [14] and in [15] were 47, 47 and 34, respectively.

B2: Seb1-CID(1-152), Q9UTE3 K124E (protein)
chain: T12 sequence (looked up) with K124E
Take B2: the results for the response in series [13], in series [14] and in [15] were 59, 58 and 56, respectively.

B3: Seb1-CID(1-152), Q9UTE3 Y64K (protein)
chain: T12 sequence (looked up) with Y64K
Turning to B3, the response amounted to 65 in series [13], 40 in [14] and 20 in series [15].

B4: Seb1-CID(1-152) (domain or fragment)
chain: T12 sequence (looked up)
Take B4: the Kd in series [16] stood at 23.4 µM; in [17], 83.7 µM; in series [18], 242 µM.

B5: Seb1-CID(1-152), Q9UTE3 S22D; K25E; K124E (protein)
chain: T12 sequence (looked up) with S22D, K25E, K124E
In the case of B5, the response in series [13] came out at 22; in [14] it was 27; in series [15], 33.

B6: Seb1-CID(1-152), Q9UTE3 S22D; K25E (protein)
chain: T12 sequence (looked up) with S22D, K25E
In the case of B6, the results for the response in series [13], in [14] and in series [15] were 72, 46 and 28, respectively.
